Test results from patent US20050048050A1 (CITY OF HOPE, published 2005).
Values belong to the binder of their own block, whether it stands above or below them.

Target: T1, purified human insulin-like growth factor I receptor (IGF-IR) (human, UniProt P08069 31-1367, limits assumed)
T1 construct: The natural receptor is made of alpha and beta subunits from one precursor; also called IGF-R; human IGF-1 receptor
Experiment: SPR (BIAcore), IGF-IR immobilised on the chip, antibody as analyte
Protocol: The affinity constants of 1H7 (10⁹ M⁻¹) and αIGF-IR scFv-Fc (10⁸ M⁻¹) for IGF-IR were determined using a BIAcore instrument (BIAcore Inc., Piscataway, N.J.). Analytes, at various concentrations, were passed over IGF-IR-immobilized chips (0.3 μg/chip) at a flow rate of 5 μl/min.

T1 sequence (P08069 31-1367 limits assumed, form in doubt): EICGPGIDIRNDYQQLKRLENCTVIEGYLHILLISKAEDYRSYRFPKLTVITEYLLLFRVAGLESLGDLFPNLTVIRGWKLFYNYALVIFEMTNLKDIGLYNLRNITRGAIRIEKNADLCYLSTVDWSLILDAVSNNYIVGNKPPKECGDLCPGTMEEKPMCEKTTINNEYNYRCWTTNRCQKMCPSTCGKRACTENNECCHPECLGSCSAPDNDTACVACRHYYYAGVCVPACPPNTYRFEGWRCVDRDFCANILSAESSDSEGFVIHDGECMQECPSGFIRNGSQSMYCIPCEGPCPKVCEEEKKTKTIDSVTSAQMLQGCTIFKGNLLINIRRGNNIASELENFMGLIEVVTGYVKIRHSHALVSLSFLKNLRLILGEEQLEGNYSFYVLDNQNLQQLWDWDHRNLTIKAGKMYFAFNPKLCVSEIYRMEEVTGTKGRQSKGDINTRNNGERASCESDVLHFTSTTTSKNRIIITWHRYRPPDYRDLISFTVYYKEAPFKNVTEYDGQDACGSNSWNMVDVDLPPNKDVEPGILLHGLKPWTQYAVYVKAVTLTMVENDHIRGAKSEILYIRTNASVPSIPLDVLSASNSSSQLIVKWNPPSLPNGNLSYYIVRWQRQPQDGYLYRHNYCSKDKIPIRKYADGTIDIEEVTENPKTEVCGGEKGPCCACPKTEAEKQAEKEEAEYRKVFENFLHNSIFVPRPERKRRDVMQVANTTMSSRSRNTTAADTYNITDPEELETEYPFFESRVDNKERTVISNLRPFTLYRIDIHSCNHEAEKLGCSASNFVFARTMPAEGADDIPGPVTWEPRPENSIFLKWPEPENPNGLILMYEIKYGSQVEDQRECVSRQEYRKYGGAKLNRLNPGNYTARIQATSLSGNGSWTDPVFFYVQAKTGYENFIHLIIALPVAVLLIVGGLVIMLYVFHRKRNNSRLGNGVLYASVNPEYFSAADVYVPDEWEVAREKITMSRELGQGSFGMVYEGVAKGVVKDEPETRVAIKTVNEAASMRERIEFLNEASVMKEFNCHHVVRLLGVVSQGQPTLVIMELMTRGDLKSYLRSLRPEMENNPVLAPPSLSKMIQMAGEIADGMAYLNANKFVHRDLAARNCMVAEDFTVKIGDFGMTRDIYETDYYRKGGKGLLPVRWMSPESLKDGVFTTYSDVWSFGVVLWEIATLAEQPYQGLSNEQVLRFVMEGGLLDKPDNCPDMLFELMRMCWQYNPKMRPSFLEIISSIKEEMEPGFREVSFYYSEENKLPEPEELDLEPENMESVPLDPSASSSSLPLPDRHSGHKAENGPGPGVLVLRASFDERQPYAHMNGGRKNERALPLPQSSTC

Ka: 1e+09 M⁻¹
B1: mouse monoclonal antibody 1H7 (antibody, V domains shown)
VH: EVKVVESGGGLVKPGGSLKLSCAASGFTFSIYAMSWVRQTPEKKLEWVASISNGGTTYYPDSVKGRFTISRDNARNILYLQMNSLRSEDTAMYYCARTFYYSFPRAMDYWGQGTSVTVSS
VL: DIVMTQSHKFMSTSVGDRVNITCKASQDVNTAVAWYQQKPGQSPKLLIYWASTRHTGVPDRFTGSGSGTDFTLTISSVQAEDLTLYYCHQHYTTPYTFGGGTNLEIK
notes: Whole murine monoclonal antibody; also called 1H7 mAb

Ka: 1e+08 M⁻¹
B2: αIGF-IR scFv-Fc (chimeric single-chain antibody against human insulin-like growth factor I receptor) (Fc fusion)
chain: DIVMTQSHKFMSTSVGDRVNITCKASQDVNTAVAWYQQKPGQSPKLLIYWASTRHTGVPDRFTGSGSGTDFTLTISSVQAEDLTLYYCHQHYTTPYTFGGGTNLEIKGGGGSGGGSGGGGSGGGSEVKVVESGGGLVKPGGSLKLSCAASGFTFSIYAMSWVRQTPEKKLEWVASISNGGTTYYPDSVKGRFTISRDNARNILYLQMNSLRSEDTAMYYCARTFYYSFPRAMDYWGQGTSVTVSS
notes: Divalent antibody with an expected Mr of 120 kDa, expressed in NS0 cells and purified on protein A. The signal peptide from the mT84.66 light chain is left out; not shown: human IgG1 Fc domain (cDNA clone from Dr. J. Schlom), SalI fragment inserted into the XhoI site of pcDNA/αIGF-IR scFv
